Reference: paper PMC10906865

Target: Human Herpes Simplex Virus glycoprotein D (Human Herpes Simplex Virus) (UniProt Q69091)
Assay: differential scanning calorimetry; peak height of the DSC thermogram of the pure protein compared with a DNA hairpin standard curve; ratio of the calorimetric concentration to the UV-Vis or dry-weight concentration read as stoichiometry; 150 mM NaCl, 10 mM potassium phosphate, 15 mM sodium citrate, pH 7.4; heating about 1°C/min

With “Human Herpes Simplex Virus glycoprotein D (from UniProt Q69091 26-394) (natural protein)” the factor of the transition heat capacity over the average of the other molecules was 2.2 fold, the percent of dimers in the sample was 35% and the percent of trimers in the sample was 65%. It also gave a stoichiometry N of 2.65.
